Measured values from the supplement of paper PMC10567573.

B1: AUP1 (parent)
chain: FCASTRLPPTPLLLFPEEEATNGR

Variants of: B1
Experiment: protein stability index of a GFP-peptide fusion (GPS, HEK-293T) (PSI 1-6); higher = more stable
Conditions: c terminus: a fixed tail appended
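Note: lentivirally expressed fusions sorted by FACS into six bins by GFP to DsRed ratio, PSI derived from sequencing read proportions per bin multiplied by bin number.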

Question: For FCASTRLPPTPLLLFPEEEAHNGR [T21H], which protein stability index is on record?
Answer: 2.69

Question: For FCASTRLPPTPLLLFPEEEARNGR [T21R], which protein stability index is on record?
Answer: 2.8

Question: For FCASTRLPPTPLLLFPEEEAENGR [T21E], which protein stability index is on record?
Answer: 3.68

Question: For FCASTRLPPTPLLLFPEEEAYNGR [T21Y], which protein stability index is on record?
Answer: 2.65

Question: For FCASTRLPPTPLLLFPEEEAINGR [T21I], which protein stability index is on record?
Answer: 2.79

Question: With FCASTRLPPTPLLLFPEEEADNGR [T21D] as the variant, how does the protein stability index read?
Answer: 3.35

Question: For FCASTRLPPTPLLLFPEEEANNGR [T21N], which protein stability index is on record?
Answer: 3.15

Question: For FCASTRWPPTPLLLFPEEEATNGR [L7W], which protein stability index is on record?
Answer: 1.51

Question: Which protein stability index does the source give for FCASTRRPPTPLLLFPEEEATNGR [L7R] here?
Answer: 2.63

Question: Which protein stability index does the source give for FCASTRLPPTPLLIFPEEEATNGR [L14I] here?
Answer: 3

Question: Which protein stability index does the source give for FCASTRLPPTPLLGFPEEEATNGR [L14G] here?
Answer: 2.66

Question: For FCASTRLPPTPLLDFPEEEATNGR [L14D], which protein stability index is on record?
Answer: 4.01

Question: For FCASTRLPPTPLLVFPEEEATNGR [L14V], which protein stability index is on record?
Answer: 3.24

Question: For FCASTRLPPTPLLMFPEEEATNGR [L14M], which protein stability index is on record?
Answer: 3.29

Question: Which protein stability index does the source give for FCASTRLPPTPLLKFPEEEATNGR [L14K] here?
Answer: 2.8

Question: With FCASTRLPPTPLLLFPEQEATNGR [E18Q] as the variant, how does the protein stability index read?
Answer: 2.72

Question: Which protein stability index does the source give for FCASTRLPPTPLLLFPEPEATNGR [E18P] here?
Answer: 2.15

Question: With FCASTRLPPTPLLLFPEYEATNGR [E18Y] as the variant, how does the protein stability index read?
Answer: 2.07

Question: For FCASTRLPPTPLLLFPELEATNGR [E18L], which protein stability index is on record?
Answer: 2.54

Question: For FCASTRLPPTPLLLFPEKEATNGR [E18K], which protein stability index is on record?
Answer: 2.32

Question: For FCASTRLPPTPLLLFPENEATNGR [E18N], which protein stability index is on record?
Answer: 2.37

Question: Which protein stability index does the source give for FCASTRLPPTPLLLFPEIEATNGR [E18I] here?
Answer: 2.4

Question: With FCASTRLPPTPLLLFPETEATNGR [E18T] as the variant, how does the protein stability index read?
Answer: 2.2

Question: Which protein stability index does the source give for FCASTRLPPTPLLLFPECEATNGR [E18C] here?
Answer: 2.18

Question: Which protein stability index does the source give for FCASTRLPPTPLLLFPEAEATNGR [E18A] here?
Answer: 2.19

Question: Which protein stability index does the source give for FCASTRLPPTPLLLFPEMEATNGR [E18M] here?
Answer: 1.94

Question: For FCASTRLPPTPLLLFPEREATNGR [E18R], which protein stability index is on record?
Answer: 2.23

Question: For FCASTRLPPTPLLLFPESEATNGR [E18S], which protein stability index is on record?
Answer: 2.12

Question: For FCASTRLPPTPLLLFPEDEATNGR [E18D], which protein stability index is on record?
Answer: 2.52

Question: For PCASTRLPPTPLLLFPEEEATNGR [F1P], which protein stability index is on record?
Answer: 4.53

Question: Which protein stability index does the source give for KCASTRLPPTPLLLFPEEEATNGR [F1K] here?
Answer: 4.17

Question: With WCASTRLPPTPLLLFPEEEATNGR [F1W] as the variant, how does the protein stability index read?
Answer: 3.74

Question: Which protein stability index does the source give for CCASTRLPPTPLLLFPEEEATNGR [F1C] here?
Answer: 2.6

Question: Which protein stability index does the source give for ECASTRLPPTPLLLFPEEEATNGR [F1E] here?
Answer: 4.65

Question: For TCASTRLPPTPLLLFPEEEATNGR [F1T], which protein stability index is on record?
Answer: 4.6

Question: Which protein stability index does the source give for HCASTRLPPTPLLLFPEEEATNGR [F1H] here?
Answer: 4.28

Question: For NCASTRLPPTPLLLFPEEEATNGR [F1N], which protein stability index is on record?
Answer: 4.16

Question: For FCSSTRLPPTPLLLFPEEEATNGR [A3S], which protein stability index is on record?
Answer: 2.44

Question: With FCNSTRLPPTPLLLFPEEEATNGR [A3N] as the variant, how does the protein stability index read?
Answer: 2.62

Question: For FCQSTRLPPTPLLLFPEEEATNGR [A3Q], which protein stability index is on record?
Answer: 2.88

Question: For FCTSTRLPPTPLLLFPEEEATNGR [A3T], which protein stability index is on record?
Answer: 2.84

Question: With FCHSTRLPPTPLLLFPEEEATNGR [A3H] as the variant, how does the protein stability index read?
Answer: 2.49

Question: With FCCSTRLPPTPLLLFPEEEATNGR [A3C] as the variant, how does the protein stability index read?
Answer: 2.78

Question: Which protein stability index does the source give for FCVSTRLPPTPLLLFPEEEATNGR [A3V] here?
Answer: 2.76

Question: With FCRSTRLPPTPLLLFPEEEATNGR [A3R] as the variant, how does the protein stability index read?
Answer: 2.23

Question: Which protein stability index does the source give for FCASTRLPPTPLLLFPEEEATNIR [G23I] here?
Answer: 2.19

Question: With FCASTRLPPTPLLLFPEEEATNTR [G23T] as the variant, how does the protein stability index read?
Answer: 2.76

Question: For FCASTRLPPTPLLLFPEEEATNVR [G23V], which protein stability index is on record?
Answer: 2.91

Question: Which protein stability index does the source give for FCASTRLPPTPLLLFPEEEATNLR [G23L] here?
Answer: 2.67

Question: With FCASTRLPPTPLLLFPEEEATNNR [G23N] as the variant, how does the protein stability index read?
Answer: 2.97

Question: For FCASTRLPPTPLLLFPEEEATNDR [G23D], which protein stability index is on record?
Answer: 3.33

Question: For FCASTRLPPTPLLLFPEEEATNKR [G23K], which protein stability index is on record?
Answer: 2.62

Question: With FCASTRLPPTPLLLFPEEEATNGI [R24I] as the variant, how does the protein stability index read?
Answer: 2.46

Question: Which protein stability index does the source give for FCASTRLPPTPLLLFPEEEATNGY [R24Y] here?
Answer: 1.88

Question: Which protein stability index does the source give for FCASTRLPPTPLLLFPEEEATNGQ [R24Q] here?
Answer: 2.98

Question: Which protein stability index does the source give for FCASTRLPPTPLLLFPEEEATNGA [R24A] here?
Answer: 3.27

Question: For FCASTRLPPTPLLLFPEEEATNGC [R24C], which protein stability index is on record?
Answer: 2.72

Question: For FCASTRLPPTPLLLFPEEEATNGL [R24L], which protein stability index is on record?
Answer: 2.09

Question: Which protein stability index does the source give for FCASTRLPPTPLLLFPEEEATNGN [R24N] here?
Answer: 3.01

Question: With FCASTRLPPTPLLLFPEEEATNGV [R24V] as the variant, how does the protein stability index read?
Answer: 2.85

Question: For FCASTRLPPTPLLLFPEEEATNGM [R24M], which protein stability index is on record?
Answer: 2.38

Question: For FCASTRLPPTPLLLFPEEEATNGK [R24K], which protein stability index is on record?
Answer: 3.12

Question: For FCASTRLPPTPLLLFPEEETTNGR [A20T], which protein stability index is on record?
Answer: 2.97

Question: Which protein stability index does the source give for FCASTRLPPTPLLLFPEEEDTNGR [A20D] here?
Answer: 3.12

Question: For FCASTRLPPTPLLLFPEEENTNGR [A20N], which protein stability index is on record?
Answer: 2.43

Question: Which protein stability index does the source give for FCASTRLPPTPLLLFPEEEWTNGR [A20W] here?
Answer: 2.15

Question: For FCASTRLPPTPLLLFPEEEQTNGR [A20Q], which protein stability index is on record?
Answer: 2.96

Question: Which protein stability index does the source give for FCASTRLPPTPLLLFPEEEGTNGR [A20G] here?
Answer: 2.79

Question: Which protein stability index does the source give for FCASTRLPPTPLLLFPEEEVTNGR [A20V] here?
Answer: 2.7

Question: With FCASTRLPPTPLLLFPEEEMTNGR [A20M] as the variant, how does the protein stability index read?
Answer: 2.88

Question: With FCASTFLPPTPLLLFPEEEATNGR [R6F] as the variant, how does the protein stability index read?
Answer: 2.2

Question: For FCASTSLPPTPLLLFPEEEATNGR [R6S], which protein stability index is on record?
Answer: 3.29

Question: For FCASTDLPPTPLLLFPEEEATNGR [R6D], which protein stability index is on record?
Answer: 3.9

Question: Which protein stability index does the source give for FCASTKLPPTPLLLFPEEEATNGR [R6K] here?
Answer: 3.09

Question: With FCASTCLPPTPLLLFPEEEATNGR [R6C] as the variant, how does the protein stability index read?
Answer: 2.7

Question: Which protein stability index does the source give for FCASTILPPTPLLLFPEEEATNGR [R6I] here?
Answer: 2.46

Question: With FCASTRLPITPLLLFPEEEATNGR [P9I] as the variant, how does the protein stability index read?
Answer: 2.43

Question: With FCASTRLPKTPLLLFPEEEATNGR [P9K] as the variant, how does the protein stability index read?
Answer: 2.67

Question: For FCASTRLPFTPLLLFPEEEATNGR [P9F], which protein stability index is on record?
Answer: 1.58

Question: For FCASTRLPGTPLLLFPEEEATNGR [P9G], which protein stability index is on record?
Answer: 2.78

Question: Which protein stability index does the source give for FCASTRLPSTPLLLFPEEEATNGR [P9S] here?
Answer: 2.82

Question: For FCASTRLPPTPLLLVPEEEATNGR [F15V], which protein stability index is on record?
Answer: 3.1

Question: For FCASTRLPPTPLLLCPEEEATNGR [F15C], which protein stability index is on record?
Answer: 2.61

Question: With FCASTRLPPTPLLLTPEEEATNGR [F15T] as the variant, how does the protein stability index read?
Answer: 3.74

Question: Which protein stability index does the source give for FCASTRLPPTPLLLNPEEEATNGR [F15N] here?
Answer: 3.44

Question: For FCASTRLPPTPLLLGPEEEATNGR [F15G], which protein stability index is on record?
Answer: 3.24

Question: For FCASTRLPPTPQLLFPEEEATNGR [L12Q], which protein stability index is on record?
Answer: 3.7

Question: For FCASTRLPPTPMLLFPEEEATNGR [L12M], which protein stability index is on record?
Answer: 3.25

Question: For FCASTRLPPTPILLFPEEEATNGR [L12I], which protein stability index is on record?
Answer: 2.58

Question: Which protein stability index does the source give for FCASTRLPPTPYLLFPEEEATNGR [L12Y] here?
Answer: 1.97

Question: With FCASTRLPPTPGLLFPEEEATNGR [L12G] as the variant, how does the protein stability index read?
Answer: 2.87

Question: For FCASTRLPPTPCLLFPEEEATNGR [L12C], which protein stability index is on record?
Answer: 2.95

Question: Which protein stability index does the source give for FCASTRLPPTPDLLFPEEEATNGR [L12D] here?
Answer: 3.72

Question: For FCASTRLPPTPSLLFPEEEATNGR [L12S], which protein stability index is on record?
Answer: 3.47
